Assay results as given in patent US20250152704A1 (PARAGON THERAPEUTICS, published 2025).

B1: Fc Fusion Molecule 6 (Fc fusion)
chain: DKTHTCPPCPAPELLGGPSVFLFPPKPKDTLYITREPEVTCVVVDVSHEDPEVKFNWYVDGVEVHNAKTKPREEQYNSTYRVVSVLTVLHQDWLNGKEYKCKVSNKALPAPIEKTISKAKGQPREPQVYTLPPSRDELTKNQVSLTCLVKGFYPSDIAVEWESNGQPENNYKTTPPVLDSDGSFFLYSKLTVDKSRWQQGNVFSCSVMHEALKFHYTQKSLSLSPGGGGGSEVQLLESGGGLVQPGGSLRLSCAASGFTFRSFGMSWVRQAPGKGPEWVSSISGSGSDTLYADSVKGRFTISRDNSKNTLYLQMNSLRPEDTAVYYCTIGGSLSRSSQGTLVTVSS
notes: Made in CHO cells; also called Efgart-G4S-ABD1
B2: Fc Fusion Molecule 5 (Fc fusion)
chain: EVQLLESGGGLVQPGGSLRLSCAASGFTFRSFGMSWVRQAPGKGPEWVSSISGSGSDTLYADSVKGRFTISRDNSKNTLYLQMNSLRPEDTAVYYCTIGGSLSRSSQGTLVTVSSGGGGSDKTHTCPPCPAPELLGGPSVFLFPPKPKDTLYITREPEVTCVVVDVSHEDPEVKFNWYVDGVEVHNAKTKPREEQYNSTYRVVSVLTVLHQDWLNGKEYKCKVSNKALPAPIEKTISKAKGQPREPQVYTLPPSRDELTKNQVSLTCLVKGFYPSDIAVEWESNGQPENNYKTTPPVLDSDGSFFLYSKLTVDKSRWQQGNVFSCSVMHEALKFHYTQKSLSLSPG
notes: Made in CHO cells; also called ABD1-G4S-Efgart
B3: Fc Fusion Molecule 11 (Fc fusion)
chain 1: EVQLLESGGGLVQPGGSLRLSCAASGFTFRSFGMSWVRQAPGKGPEWVSSISGSGSDTLYADSVKGRFTISRDNSKNTLYLQMNSLRPEDTAVYYCTIGGSLSRSSQGTLVTVSSGGGGSGGGGSGGGGSDKTHTCPPCPAPELLGGPSVFLFPPKPKDTLYITREPEVTCVVVDVSHEDPEVKFNWYVDGVEVHNAKTKPREEQYNSTYRVVSVLTVLHQDWLNGKEYKCKVSNKALPAPIEKTISKAKGQPREPQVCTLPPSRDELTKNQVSLSCAVKGFYPSDIAVEWESNGQPENNYKTTPPVLDSDGSFFLVSKLTVDKSRWQQGNVFSCSVMHEALKFHYTQKSLSLSPG
chain 2: DKTHTCPPCPAPELLGGPSVFLFPPKPKDTLYITREPEVTCVVVDVSHEDPEVKFNWYVDGVEVHNAKTKPREEQYNSTYRVVSVLTVLHQDWLNGKEYKCKVSNKALPAPIEKTISKAKGQPREPQVYTLPPCRDELTKNQVSLWCLVKGFYPSDIAVEWESNGQPENNYKTTPPVLDSDGSFFLYSKLTVDKSRWQQGNVFSCSVMHEALKFHYTQKSLSLSPG
notes: also called ABD1-(G4S)3-Efgart(KIH); ABD1-(G4S)3-Efgart(H)/Efgart(K)
B4: Fc Fusion Molecule 12 (Fc fusion)
chain 1: DKTHTCPPCPAPELLGGPSVFLFPPKPKDTLYITREPEVTCVVVDVSHEDPEVKFNWYVDGVEVHNAKTKPREEQYNSTYRVVSVLTVLHQDWLNGKEYKCKVSNKALPAPIEKTISKAKGQPREPQVCTLPPSRDELTKNQVSLSCAVKGFYPSDIAVEWESNGQPENNYKTTPPVLDSDGSFFLVSKLTVDKSRWQQGNVFSCSVMHEALKFHYTQKSLSLSPGGGGGSGGGGSGGGGSEVQLLESGGGLVQPGGSLRLSCAASGFTFRSFGMSWVRQAPGKGPEWVSSISGSGSDTLYADSVKGRFTISRDNSKNTLYLQMNSLRPEDTAVYYCTIGGSLSRSSQGTLVTVSS
chain 2: B3 chain 2
notes: also called Efgart(KIH)-(G4S)3-ABD1; Efgart(H)-(G4S)3-ABD1/Efgart(K)

Each binder was assayed against T1, Recombinant in-house Human FcRn protein (human, UniProt P55899 24-297; P61769 21-119, limits assumed) (assay: SPR (Biacore 8K), Fc fusion captured by anti-human Fc on CM5, huFcRn as analyte, 25 C, pH 7.4, 1:1 fit).
T1 construct: also called huFCRN; HuFcRn
Description: (§1) Following a stabilization period in running buffer, the Fc fusion molecules at 20 nM were captured onto flow cell 2 (active) for 60 sec at a flow rate of 30 uL/min. […] Samples were injected in a multi-cycle manner over freshly captured Fc fusion molecule, by regenerating the capture surfaces with injection of 10 mM glycine pH 1.5 for 30 sec at a flow rate of 30 μL/min. The data was processed and analyzed with Biacore Insight Evaluation Software Version 2.0.15.12933 (GE Healthcare) as follows. […] The responses from the two buffer blank injections were then subtracted from the reference subtracted data (2-1) to yield double-referenced data, which were fit to a 1:1 binding model to determine the apparent association (ka) and dissociation rate constants (kd). Their ratio provided the apparent equilibrium dissociation constant or affinity constant (KD=kd/ka).

Kd [nM]	Binder
634	B1
375	B2
371	B3
492	B4

The binders below were run against T2, human serum albumin (human, UniProt P02768 25-609) (assay: SPR (Biacore 8K), Fc fusion captured by anti-human Fc on CM5, HSA as analyte, 25 C, pH 6.0, 1:1 fit).
T2 construct: also called HSA
T2 sequence (P02768 25-609 limits assumed): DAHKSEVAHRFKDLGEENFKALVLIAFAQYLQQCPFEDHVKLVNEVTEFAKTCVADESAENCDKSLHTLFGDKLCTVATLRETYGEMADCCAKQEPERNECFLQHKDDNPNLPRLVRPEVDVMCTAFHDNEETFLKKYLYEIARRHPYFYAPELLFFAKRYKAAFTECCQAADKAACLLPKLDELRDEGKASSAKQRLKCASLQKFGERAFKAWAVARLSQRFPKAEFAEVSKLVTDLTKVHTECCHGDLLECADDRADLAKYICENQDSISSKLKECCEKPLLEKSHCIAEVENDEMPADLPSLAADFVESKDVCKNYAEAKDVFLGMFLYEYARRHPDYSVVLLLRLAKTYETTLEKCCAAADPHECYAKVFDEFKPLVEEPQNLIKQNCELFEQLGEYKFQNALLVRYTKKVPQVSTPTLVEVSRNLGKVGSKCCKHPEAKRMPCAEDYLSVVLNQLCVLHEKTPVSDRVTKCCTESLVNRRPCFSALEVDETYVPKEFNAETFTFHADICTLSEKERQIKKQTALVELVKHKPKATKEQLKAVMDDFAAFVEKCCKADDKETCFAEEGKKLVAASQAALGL
Description: as §1

Kd [nM]	Binder
33.8	B1
6.32	B2
7.26	B3
33.4	B4

The binders below were run against T1, Recombinant in-house Human FcRn protein (assay: SPR (Biacore 8K), Fc fusion captured by anti-human Fc on CM5, huFcRn as analyte, 25 C, pH 6.0, 1:1 fit).
Description: as §1

Kd [nM]	Binder
2.1	B1
8.07	B2
6.69	B3
11.3	B4

The binders below were run against T2, human serum albumin (assay: SPR (Biacore 8K), Fc fusion captured by anti-human Fc on CM5, HSA as analyte, 25 C, pH 7.4, 1:1 fit).
Description: as §1

Kd [nM]	Binder
45.6	B1
12	B3
54.6	B4
